Experimental findings from patent US7858298 are described below.

Assay [1] addresses human CCR5 expressed on the cell surface (human) (UniProt P51681). In words: cell-based or functional assay.
In assay [2] the target is CD4 on CD4+ target cells (human) (UniProt P01730). As to the kind of experiment: cell-based or functional assay.

Sequence of recombinant human MIP-1β (P13236 24-92 limits assumed): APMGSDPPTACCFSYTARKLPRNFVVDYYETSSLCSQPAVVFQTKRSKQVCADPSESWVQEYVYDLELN
Sequence of recombinant human MIP-1α (P10147 27-92 limits assumed): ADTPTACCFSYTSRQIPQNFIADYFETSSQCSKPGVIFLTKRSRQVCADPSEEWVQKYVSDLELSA
Sequence of recombinant human RANTES (P13501 24-91): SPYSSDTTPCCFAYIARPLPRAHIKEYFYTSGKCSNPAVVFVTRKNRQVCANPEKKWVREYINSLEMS

In assay [1], RANTES + MIP-1α + MIP-1β gave a % Fusion (RET assay), LW5 CD4+ cells with HeLa-JR-FL cells; R/Mα/Mβ 106/533/133 ng/ml of 39%; a % Fusion (RET assay), PM1 cells with HeLa-JR-FL cells; R/Mα/Mβ 80/400/100 ng/ml of 1%; a % luciferase activity, entry of ADA env-complemented virus into PM1 cells; R/Mα/Mβ 50/50/50 ng/ml of 3%; a % luciferase activity, entry of BaL env-complemented virus into PM1 cells; R/Mα/Mβ 50/50/50 ng/ml of 2%. Further, in assay [1], the % luciferase activity, entry of JR-FL env-complemented virus into LW4 CD4+ T-cells; R/Mα/Mβ 200/200/200 ng/ml was determined as 14%; the % luciferase activity, entry of JR-FL env-complemented virus into LW5 CD4+ T-cells; R/Mα/Mβ 200/200/200 ng/ml amounted to 15%; the luciferase activity, ADA entry into 3T3-CD4 cells expressing CKR-5, with R/Mα/Mβ 400 ng/ml each (28400 without) (luciferase activity (unit not given)) stood at 1220; the luciferase activity, ADA entry into COS-CD4 cells expressing CKR-5, with R/Mα/Mβ 400 ng/ml each (153000 without) (luciferase activity (unit not given)) was 3210. Further, in assay [1], the luciferase activity, ADA entry into HeLa-CD4 cells expressing CKR-5, with R/Mα/Mβ 400 ng/ml each (310000 without) (luciferase activity (unit not given)) was 6340; the luciferase activity, BaL entry into 3T3-CD4 cells expressing CKR-5, with R/Mα/Mβ 400 ng/ml each (11700 without) (luciferase activity (unit not given)) worked out at 756; the luciferase activity, BaL entry into COS-CD4 cells expressing CKR-5, with R/Mα/Mβ 400 ng/ml each (58800 without) (luciferase activity (unit not given)) was found to be 756; the luciferase activity, BaL entry into HeLa-CD4 cells expressing CKR-5, with R/Mα/Mβ 400 ng/ml each (104000 without) (luciferase activity (unit not given)) was 750.
Take monoclonal antibody OKT4A: in assay [2], the % Fusion (RET assay), LW5 CD4+ cells with HeLa-BRU cells; OKT4A 3 ug/ml stood at 0% and the % Fusion (RET assay), LW5 CD4+ cells with HeLa-JR-FL cells; OKT4A 3 ug/ml was 0%.
In assay [1], “recombinant human MIP-1α (from UniProt P10147 27-92) (ligand)” yielded a % Fusion (RET assay), LW5 CD4+ cells with HeLa-JR-FL cells; MIP-1α 533 ng/ml of 72%; a % Fusion (RET assay), PM1 cells with HeLa-JR-FL cells; MIP-1α 400 ng/ml of 39%; a % luciferase activity, entry of ADA env-complemented virus into PM1 cells; MIP-1α 100 ng/ml of 54%; a % luciferase activity, entry of BaL env-complemented virus into PM1 cells; MIP-1α 100 ng/ml of 54%.
In assay [1], “recombinant human MIP-1β (from UniProt P13236 24-92) (ligand)” returned a % Fusion (RET assay), LW5 CD4+ cells with HeLa-JR-FL cells; MIP-1β 133 ng/ml of 44%; a % Fusion (RET assay), PM1 cells with HeLa-JR-FL cells; MIP-1β 100 ng/ml of 13%; a % luciferase activity, entry of ADA env-complemented virus into PM1 cells; MIP-1β 100 ng/ml of 6%; a % luciferase activity, entry of BaL env-complemented virus into PM1 cells; MIP-1β 100 ng/ml of 1%.
In the case of “recombinant human RANTES (from UniProt P13501 24-91) (ligand)”, in assay [1], the % Fusion (RET assay), LW5 CD4+ cells with HeLa-JR-FL cells; RANTES 106 ng/ml amounted to 65%; the % Fusion (RET assay), PM1 cells with HeLa-JR-FL cells; RANTES 80 ng/ml amounted to 8%; the % luciferase activity, entry of ADA env-complemented virus into PM1 cells; RANTES 100 ng/ml was found to be 1%; the % luciferase activity, entry of BaL env-complemented virus into PM1 cells; RANTES 100 ng/ml amounted to 1%.
